From patent publication US20150335719A1, “Intravitreal Injection of a Chimeric Phage Endolysin Ply187; Protection from Staphylococcus aureus Endophthalmitis” (priority 2014, published 2015)

Columns and labels:
[1] = intravitreal injection alone
[2] = test system: retinal function in S. aureus-infected eyes; conditions: treatment 6 h post infection, ERG 24 h post treatment
Protocol: The percentage amplitude of the a- and b-waves retained in S. aureus (SA)-infected, treated and untreated mice were compared to normal uninfected mice and presented as mean±SD (FIG. 7D).
Scotopic ERG was used to determine retinal function following S. aureus infection and chimeric Ply187AN-KSH3b treatment (6 h post infection). The mice (control, infected and infected+treated) were anesthetized 24 h post Ply187AN-KSH3b treatment, maintained at 37° C. using a heat pad, and the pupils were dilated using 1% tropicamide ophthalmic solution. ERGs were recorded following bilateral mydriasis and at least 4 h of dark adaptation. Silver embedded thread eye electrodes (Ocuscience™ LLC, Kansas City, Mo.) were used to record the ERG. Reference needle electrodes (stainless steel subdermal needle electrodes) were placed in anterior scalp and a ground needle electrode was placed in the tail. ERG responses were acquired using an ERG system (Ocuscience™ LLC, Kansas City, Mo.) and analyzed using ERGVIEW 4.380V. Ganzfeld light stimulus was used to present ten 10 ms flashes, with light intensities, increasing from 0.0001 to 100 cd-s/m^2. The ERG a-wave was measured as amplitude between the ERG baseline and the first negative peak, and the ERG b-wave was measured as amplitude between the first negative peak and the first positive peak.

[3] = test system: S. aureus strain RN6390; test: Inoculum effect study in vitro; assay type: cell-based, Staphylococcus aureus; conditions: dilutions 1:10,000 to 1:10, 1 h at MIC
Text: FIGS. 4 A, B and C depict the effect of chimeric Ply187AN-KSH3b on bacterial growth in vivo and in the vitreous humor (VH) in vitro and with increasing inoculums in vitro respectively. […] Twenty-four hours after the treatment, the eyes were enucleated, homogenized and the bacterial burden was estimated via serial dilution plating. FIG. 4B depicts a test showing the effect of the vitreous humor on Ply187AN-KSH3b antimicrobial activity where Ply187AN-KSH3b was mixed with calf vitreous humor and inoculated with 10^5 CFU of S. aureus. The survival of the bacteria was enumerated by CFU count at 2, 4 and 6 h of incubation. Statistical analysis was performed using unpaired student's t test (*, p<0.05; **, p<0.005; ***, p<0.0005). […] An increasing number of dilutions (1:10,000 to 1:10) of logarithmic phase of S. aureus (RN6390 strain) were treated with Ply187AN-KSH3b for 1 h followed by CFU enumeration on TSA plates. Statistical analysis was performed using unpaired student's t test (*, p<0.05; **, p<0.005; ***, p<0.0005).
To determine the effect of Vitreous Humor (VH) on antimicrobial activity of chimeric Ply187AN-KSH3b in vitro, bacteria (10^5 CFU) were incubated with chimeric Ply187AN-KSH3b in the presence of calf VH. Following incubation at 37° C. for the desired time, bacterial growth in VH was enumerated by serial dilution plating. […]

[4] = test system: S. aureus USA 300 (CA-MRSA); test: MIC against S. aureus strains (Table 1); assay type: cell-based, Staphylococcus aureus; conditions: mean of three experiments ± SEM
Protocol: (§1) For in vivo studies, an antibiotic sensitive S. aureus (SA) strain RN6390 was used to induce endophthalmitis; whereas, the in vitro studies were performed using antibiotic-resistant strains (Table 1), including USA300, a community-associated methicillin resistant S. aureus (CA-MRSA), and three clinical isolates R2932 (CA-MRSA), R2952 and R3000 (both being hospital-associated MRSA, […]), […]) kindly provided by Dr. Michael J. Rybak (Department of Pharmaceutical Sciences, Wayne State University, Detroit, Mich.). All bacteria were routinely cultured in TSB broth (Tryptic Soy broth, Sigma, St Louis, Mo.) or on TSB agar plates.
(§2) To verify and quantify the lytic activity against live S. aureus, we have tested Ply187AN-KSH3b in the Turbidity Reduction Assay. The turbidity assay measures the drop in optical density (OD) resulting from lysis of the target bacteria with the phage endolysin-derived protein. Turbidity reduction assays by chimeric Ply187AN-KSH3b were performed in a 96 well plate as described previously by Becker et al. (2009a, 2009b, supra). Briefly, S. aureus strains/isolates RN6390, USA 300, and clinical isolates R2932, R2952 and R3000 were grown to logarithmic phase (OD600 0.4-0.6) at 37° C. in tryptic Soy broth (TSB). The culture was harvested by centrifugation and the pellet was resuspended in assay buffer (400 mM NaCl, 20 mM Tris HCl, 1% glycerol, pH 7.5). Bacterial cultures (100 μl/well) were mixed with 100 μl of (as per MIC) of chimeric Ply187AN-KSH3b protein diluted in the same assay buffer. The reduction in the turbidity was measured after every 5 min up to 1 h using a micro plate reader. EB diluted in the same assay buffer (without chimeric Ply187AN-KSH3b protein) was used as a control (EB C). Resistance development against chimeric Ply187AN-KSH3b was tested using repeated exposure in an MIC assay as described by Rodriguez-Rubio and co-workers (Rodriguez-Rubio et al., PLoS One 8:e64671.). In brief, bacterial cultures (10^5 CFU/well) were exposed overnight to a 2-fold serial dilution of chimeric Ply187AN-KSH3b, lysostaphin, and gentamicin, where the latter serve as controls. In every round, 100 μl culture from the wells with growth (½ MIC value) were inoculated into fresh TSB and grown up to logarithmic phase. These cultures were used for the next round of MIC exposure. Bacteria surviving after 10 rounds were grown for an additional 5 rounds in TSB without any selection pressure to allow phenotype-reversion, then MIC were performed to measure the sensitivity to the chimeric Ply187AN-KSH3b after non-selective growth.

[5] = test system: S. aureus RN6390 (MSSA); test: MIC against S. aureus strains (Table 1); assay type: cell-based, Staphylococcus aureus; conditions: mean of three experiments ± SEM
Protocol: as §1, §2

[6] = test system: S. aureus R 2932 (CA-MRSA); test: MIC against S. aureus strains (Table 1); assay type: cell-based, Staphylococcus aureus; conditions: mean of three experiments ± SEM
Protocol: as §1, §2

[7] = test system: S. aureus R 2952 (HA-MRSA); test: MIC against S. aureus strains (Table 1); assay type: cell-based, Staphylococcus aureus; conditions: mean of three experiments ± SEM
Protocol: as §1, §2

[8] = test system: S. aureus R 3000 (HA-MRSA); test: MIC against S. aureus strains (Table 1); assay type: cell-based, Staphylococcus aureus; conditions: mean of three experiments ± SEM
Protocol: as §1, §2

[9] = test system: staphylococci; conditions: Mao et al.; cited from earlier work
[10] = test system: cultured microglia, Müller glia and RPE; test: Cytotoxicity analysis in vitro; assay type: cell-based; conditions: data not shown
[11] = test system: retinal cells; test: Cytotoxicity analysis in vivo (retinal cell death); conditions: data not shown
[12] = test system: S. aureus strain RN6390; test: Resistance development assay by repeated exposure in an MIC assay; assay type: cell-based, Staphylococcus aureus; conditions: RN6390, up to 10 rounds of exposure
Protocol: Error bars represent SEM for three independent experiments performed in triplicates. […] Cells surviving at half (½) of the MIC value were used as an inoculum for each subsequent round of exposure. The change in susceptibility is recorded and presented as fold change resistance from day 1 to 10 of exposure and also after 5 days of growth (without any selection pressure) following the 10th day (represented as 10+5). The data represent means±SEM of two independent experiments performed in triplicate.
as §2, with “In every round, 100 μl culture from the wells with growth (½ MIC value) were inoculated into fresh TSB and grown up to logarithmic phase. These cultures were used for the next round of MIC exposure. Bacteria surviving after 10 rounds were grown for an additional 5 rounds in TSB without any selection pressure to allow phenotype-reversion, then MIC were performed to measure the sensitivity to the chimeric Ply187AN-KSH3b after non-selective growth.” left out

B1: Ply187AN-KSH3b: staphylococcal peptidoglycan hydrolase fusion protein: endopeptidase domain of prophage endolysin Ply187 plus SH3b cell wall-binding domain of phage K endolysin LysK (SEQ ID NO:1) (protein)
chain: MALPKTGKPTAKQVVDWAINLIGSGVDVDGYYGRQCWDLPNYIFNRYWNFKTPGNARDMAWYRYPEGFKVFRNTSDFVPKPGDIAVWTGGNYNWNTWGHTGIVVGPSTKSYFYSVDQNWNNSNSYVGSPAAKIKHSYFGVTHFVRPAYKAEPKPTPPLESTPATRPVTGSWKKNQYGTWYKPENATFVNGNQPIVTRIGSPFLNAPVGGNLPAGATIVYDEVCIQAGHIWIGYNAYNGNRVYCPVRTCQGVPPNQIPGVAWGVFKVEHHHHHH
modifications: Chemically Synthesized Fusion Protein
With B1 the “inflammatory response in the eye” value [1] was “does not evoke an inflammatory response”, the “ERG a- and b-wave amplitudes” value [2] was “no significant decline in a- or b-wave amplitudes” and the “a- and b-wave amplitudes retained” value ([2]; vs uninfected) was 90-95%. The “activity with increasing bacterial numbers” value [3] was “no reduction in Ply187AN-KSH3b activity”, the MIC [4] was 4.16 ± 1.04 µg/mL and the MIC [5] was 4.16 ± 1.04 µg/mL. The MIC [6] was 4.16 ± 1.04 µg/mL, the MIC [7] was 8.33 ± 2.08 µg/mL and the MIC [8] was 4.16 ± 1.04 µg/mL. The “antimicrobial effectiveness relative to Ply187, Ply187AN and LysK” value [9] was “more effective antimicrobial than the full-length Ply187 or the truncated Ply187 (Ply187AN)”, the “retinal cell death in vitro” value [10] was “does not cause retinal cell death” and the “retinal cell death in vivo” value [11] was “does not cause retinal cell death”. The “fold change in resistance” value [12] was “failed to develop any resistance”.
